US20220409694A1, “POLYPEPTIDE, AND PREPARATION METHOD THEREFOR AND USE THEREOF” (SHANXI JINBO BIO-PHARMACEUTICAL CO., LTD., priority 2020, published 2022)

How the values were obtained:
Experiment in all cases: cell-based or functional assay
[1] = biological target: Rs3367-CoV S protein (pcDNA3.1-Rs3367-CoV-S, on pseudovirus) (Rs3367-CoV (SARS-like virus from bats))
[2] = biological target: SARS-CoV S protein (pcDNA3.1-SARS-CoV-S, on pseudovirus) (SARS-CoV), P59594
[3] = biological target: WIV1-CoV S protein (pcDNA3.1-WIV1-CoV-S, on pseudovirus) (WIV1-CoV (SARS-like virus from bats))

SLDQINVTFLDLEYEMKKLEEAIKKLEESYIDLKEL (modifications not checked) [EK1] gave an Inhibitory Activity, IC50 (pseudovirus infection of HuH7, luciferase) [1] of 4 µM, an Inhibitory Activity, IC50 (pseudovirus infection of HuH7, luciferase) [2] of 1.89 µM and an Inhibitory Activity, IC50 (pseudovirus infection of HuH7, luciferase) [3] of 2.94 µM.
